{"source": "paper PMC6534964", "about": "(Journal of the American Chemical Society, 2018)", "binders": {"B1": {"name": "S100A9, subunit of native CP (natural protein, human, UniProt P06702 2-114, looked up)", "chain": "TCKMSQLERNIETIINTFHQYSVKLGHPDTLNQGEFKELVRKDLQNFLKKENKNEKVIEHIMEDLDTNADKQLSFEEFIMLMARLTWASHEKMHEGDEGPGHHHKPGLGEGTP"}}, "key": {"SEC": {"biological_target": "the molecule itself", "assay": "SEC"}, "[1]": {"biological_target": "T1, S100A9(C3S), subunit of CP-Ser (human, UniProt P06702 2-114, C3S)", "T1 sequence (looked up)": "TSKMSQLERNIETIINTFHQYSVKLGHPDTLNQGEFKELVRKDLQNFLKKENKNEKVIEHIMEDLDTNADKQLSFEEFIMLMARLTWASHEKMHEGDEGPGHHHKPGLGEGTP", "assay": "anion exchange chromatography"}, "[2]": {"biological_target": "B1", "assay": "cross-linking"}, "cross-linking": {"biological_target": "the molecule itself", "assay": "cross-linking"}}}
{"binder": "CP-Ser, S100A8(C42S)/S100A9(C3S) heterodimer of human calprotectin (complex) chain 1: MLTELEKALNSIIDVYHKYSLIKGNFHAVYRDDLKKLLETESPQYIRKKGADVWFKELDINTDGAVNFQEFLILVIKMGVAAHKKSHEESHKE chain 2: TSKMSQLERNIETIINTFHQYSVKLGHPDTLNQGEFKELVRKDLQNFLKKENKNEKVIEHIMEDLDTNADKQLSFEEFIMLMARLTWASHEKMHEGDEGPGHHHKPGLGEGTP", "values": [{"measurement": "binding result", "setting": "SEC", "value": "binds"}]}
{"binder": "S100A8(C42S), subunit of CP-Ser (natural protein, human, UniProt P05109 1-93, looked up) MLTELEKALNSIIDVYHKYSLIKGNFHAVYRDDLKKLLETESPQYIRKKGADVWFKELDINTDGAVNFQEFLILVIKMGVAAHKKSHEESHKE", "values": [{"measurement": "binding result", "setting": "[1]", "value": "binds"}]}
{"binder": "S100A8, subunit of native CP (natural protein, human, UniProt P05109 1-93, looked up) MLTELEKALNSIIDVYHKYSLIKGNFHAVYRDDLKKLLETECPQYIRKKGADVWFKELDINTDGAVNFQEFLILVIKMGVAAHKKSHEESHKE", "values": [{"measurement": "binding result", "setting": "[2]", "value": "binds"}]}
{"binder": "B1", "values": [{"measurement": "binding result", "setting": "cross-linking", "value": "binds"}]}
{"binder": "CP-Ser M81A variant, S100A8(C42S)/S100A9(C3S)(M81A) (complex, human) chain 1: MLTELEKALNSIIDVYHKYSLIKGNFHAVYRDDLKKLLETESPQYIRKKGADVWFKELDINTDGAVNFQEFLILVIKMGVAAHKKSHEESHKE chain 2: TSKMSQLERNIETIINTFHQYSVKLGHPDTLNQGEFKELVRKDLQNFLKKENKNEKVIEHIMEDLDTNADKQLSFEEFIALMARLTWASHEKMHEGDEGPGHHHKPGLGEGTP", "values": [{"measurement": "binding result", "setting": "SEC", "value": "binds"}]}
